PMC7935953, “Insights on autophagosome–lysosome tethering from structural and biochemical characterization of human autophagy factor EPG5” (Communications Biology, 2021)

Target: T1, GABARAP (Homo sapiens, UniProt O95166)
T1 construct: made in house; host or cells: E. coli (T7 Express)
Test: GST pull-down of hEPG5 (wild type and mutants) with GST-GABARAP bait
Assay type: binding
Conditions: anti-FLAG western blot, compared to wild-type hEPG5, triplicates
Experimental: For GST pull-down analysis, N-terminally GST-tagged LC3 and GABARAP proteins were expressed in Escherichia coli (T7 Express) cells. The cells were induced with 1 mM isopropyl β-d-1-thiogalacpyranoside [IPTG] for 4 h at 25 °C. The cell pellets were resuspended in 25 mL buffer E (50 mM Tris pH 8.0, 150 mM NaCl, and 1 mM PMSF). Cells were then sonicated for four cycles consisting of 1 min sonication followed by 2 min cooling on ice, with duty cycle set to 50% and output control at 5. Cell lysate was then centrifuged at 20,950 × g for 40 min at 4 °C. Supernatant was incubated for 1 h at 4 °C with glutathione resin (50% slurry, GenScript) pre-equilibrated with buffer E, while gently inverting. Resin was returned to the column and washed with buffer E. Proteins were eluted with 10 mM reduced glutathione (GoldBio) in buffer F (50 mM Tris pH 8.0, 150 mM NaCl). Free glutathione was removed by dialysis in buffer F and protein concentration was measured by spectrophotometry (NanoDrop, Thermo Scientific). Glycerol was added to a final concentration of 5%, then solutions were aliquoted and stored at −70 °C.
Pulldowns were performed with a 50 µL slurry of glutathione resin (50% slurry, GenScript). […]
All experiments were performed in triplicates. […] Intensity of His-FLAG-hEPG5, GST (control), and GST-LC3/GABARAP subfamily proteins in pull-down assays was quantified using Bio-Rad Image Lab Software v6.0. […]

T1 sequence (O95166 whole entry): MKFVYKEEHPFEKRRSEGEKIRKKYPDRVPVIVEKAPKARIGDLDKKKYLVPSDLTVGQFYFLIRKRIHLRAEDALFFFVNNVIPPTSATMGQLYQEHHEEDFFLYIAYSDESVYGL

B1: hEPG5^Δ1–1198: hEPG5 truncation mutant which excludes the entire N-terminal region (protein)
chain: YHCDRSLLSSLVSWIVAGNITPSFVEGLATPTQVWFAWTVLNMESIFEEDSQLRRVIEGELVINSAFTPDQALKKAQTQLKLPIVPSLQRLLIYRWAHQALVTPSDHPLLPLIWQKFFLLYLHRPGPQYGLPIDGCIGRRFFQSPAHINLLKEMKRRLTEVADFHHAASKALRVPAEGSEGLPESHSGTPGYLTSPELHKELVRLFNVYILWLEDENFQKGDTYIPSLPKHYDIHRLAKVMQNQQDLWMEYLNMERIYHEFQETVGLWTQAKLESHSTPCSLSVQLDFTDPLLAKERVLSNLRKHEAPQPPLALHPTKPPVPVISSAVLLSQKDATQLVCTDLNLLQQQARTAALRESQQVALDGELLDTMPKQYVNREEQTTLHLECRGSSGKKCQGAAVVTVQFEGMHKNEAISQQLHVLRKEVKQLQAEAAKPPSLNIVEAAVHAENLITALVNAYKLQPTPGIQKVGISLFFTIVDYVSDETQRHPPTRQFFTSCIEILGQVFISGIKSECRKVLETILKNSRLCSLLSPFFTPNAAPAEFIQLYEQVVKFLSEDNSDMIFMLLTKFDLKQWLSATKPPLSDRTRLLESIHLALTAWGLEPDEDILMPFNLFCKHWTYLLLYQFPDQYSDILRLLMQSSAEQLLSPECWKATLRALGCCAPSCQQGAASTEGAVLPSSSDALLSDKQVMETIQWLSDFFYKLRLSKMDFKSFGLFSKWSPYMADVKTFLGYLVKRLIDLEMTCLAQDPTASRKTVLKSLHSVIIQLFKPWILVLEDNESSQQRHYPWLESDTVVASSIVQLFTDCIDSLHESFKDKLLPGDAGALWLHLMHYCEACTAPKMPEFILYAFHSTYRKLPWKDLHPDQMLMEAFFKVERGSPKSCFLFLGSVLCEVNWVSVLSDAWNSSPHPETRSMIVCLLFMMILLAKEVQLVDQTDSPLLSLLGQTSSLSWHLVDIVSYQSVLSYFSSHYPPSIILAKESYAELIMKLLKVSAGLSIPTDSQKHLDAVPKCQAFTHQMVQFLSTLEQNGKITLAVLEQEMSKLLDDIIVFNPPDMDSQTRHMALSSLFMEVLMMMNNATIPTAEFLRGSIRTWIGQKMHGLVVLPLLTAACQSLASVRHMAETTEACITAYFKESPLNQNSGWGPILVSLQVPELTMEEFLQECLTLGSYLTLYVYLLQCLNSEQTLRNEMKVLLILSKWLEQVYPSSVEEEAKLFLWWHQVLQLSLIQTEQNDSVLTESVIRILLLVQSRQNLVAEERLSSGILGAIGFGRKSPLSNRFRVVARSMAAFLSVQVPMEDQIRLRPGSELHLTPKAQQALNALESMASSKQYVEYQDQILQATQFIRHPGHCLQDGKSFLALLVNCLYPEVHYLDHIR
modifications: left off: His, end not stated, kept | FLAG, end not stated, kept
notes: hEPG5 truncation mutant which excludes the entire N-terminal region
binding to GABARAP in GST pull-down, in words: but not hEPG5^Δ1–1198 was pulled down by GABARAP
